Consider 14 molecules from US20240391954A1, “MC4R AGONIST PEPTIDES” (The Regents of the University of Michigan, priority 2021, published 2024).

B1: CTX-1284 (peptide)
peptide: Ac-RC[dA]R[dF][NMeR][dW]C-NH2
modifications: disulfide 2-8
SMILES: CC(=O)N[C@@H](CCCNC(=N)N)C(=O)N[C@H]1CSSC[C@@H](C(N)=O)NC(=O)[C@@H](Cc2c[nH]c3ccccc23)NC(=O)[C@H](CCCNC(=N)N)N(C)C(=O)[C@@H](Cc2ccccc2)NC(=O)[C@H](CCCNC(=N)N)NC(=O)[C@@H](C)NC1=O
B2: CTX-1278 (peptide)
peptide: Ac-RC[dA]R[d(αMeF)]RWC-NH2
modifications: disulfide 2-8
SMILES: CC(=O)N[C@@H](CCCNC(=N)N)C(=O)N[C@H]1CSSC[C@@H](C(N)=O)NC(=O)[C@H](Cc2c[nH]c3ccccc23)NC(=O)[C@H](CCCNC(=N)N)NC(=O)[C@@](C)(Cc2ccccc2)NC(=O)[C@H](CCCNC(=N)N)NC(=O)[C@@H](C)NC1=O
B3: CTX-1269 (peptide)
peptide: Ac-RC[NMeA]R[dF]R[dW]C-NH2
modifications: disulfide 2-8
SMILES: CC(=O)N[C@@H](CCCNC(=N)N)C(=O)N[C@H]1CSSC[C@@H](C(N)=O)NC(=O)[C@@H](Cc2c[nH]c3ccccc23)NC(=O)[C@H](CCCNC(=N)N)NC(=O)[C@@H](Cc2ccccc2)NC(=O)[C@H](CCCNC(=N)N)NC(=O)[C@H](C)N(C)C1=O
B4: CTX-1232 (peptide)
peptide: Ac-R[Nle]CR[dPhe(4-Br)]R[dW]C-NH2
modifications: disulfide 3-8
SMILES: CCCC[C@H](NC(=O)[C@H](CCCNC(=N)N)NC(C)=O)C(=O)N[C@H]1CSSC[C@@H](C(N)=O)NC(=O)[C@@H](Cc2c[nH]c3ccccc23)NC(=O)[C@H](CCCNC(=N)N)NC(=O)[C@@H](Cc2ccc(Br)cc2)NC(=O)[C@H](CCCNC(=N)N)NC1=O
B5: CTX-1230 (peptide)
peptide: Ac-R[Nle]CR[dPhe(4-Br)]RWC-NH2
modifications: disulfide 3-8
SMILES: CCCC[C@H](NC(=O)[C@H](CCCNC(=N)N)NC(C)=O)C(=O)N[C@H]1CSSC[C@@H](C(N)=O)NC(=O)[C@H](Cc2c[nH]c3ccccc23)NC(=O)[C@H](CCCNC(=N)N)NC(=O)[C@@H](Cc2ccc(Br)cc2)NC(=O)[C@H](CCCNC(=N)N)NC1=O
B6: CTX-1239 (peptide)
peptide: Ac-RC[dA]R[d(hPhe)]R[dW]C-NH2
modifications: disulfide 2-8
SMILES: CC(=O)N[C@@H](CCCNC(=N)N)C(=O)N[C@H]1CSSC[C@@H](C(N)=O)NC(=O)[C@@H](Cc2c[nH]c3ccccc23)NC(=O)[C@H](CCCNC(=N)N)NC(=O)[C@@H](CCc2ccccc2)NC(=O)[C@H](CCCNC(=N)N)NC(=O)[C@@H](C)NC1=O
B7: CTX-1229 (peptide)
peptide: Ac-R[Nle]CH[dPhe(4-Br)]RWC-NH2
modifications: disulfide 3-8
SMILES: CCCC[C@H](NC(=O)[C@H](CCCNC(=N)N)NC(C)=O)C(=O)N[C@H]1CSSC[C@@H](C(N)=O)NC(=O)[C@H](Cc2c[nH]c3ccccc23)NC(=O)[C@H](CCCNC(=N)N)NC(=O)[C@@H](Cc2ccc(Br)cc2)NC(=O)[C@H](Cc2c[nH]cn2)NC1=O
B8: CTX-1216 (peptide)
peptide: Ac-RC[dA]R[dPhe(4-Br)]R[dW]CKPV-NH2
modifications: disulfide 2-8
SMILES: CC(=O)N[C@@H](CCCNC(=N)N)C(=O)N[C@H]1CSSC[C@@H](C(=O)N[C@@H](CCCCN)C(=O)N2CCC[C@H]2C(=O)N[C@H](C(N)=O)C(C)C)NC(=O)[C@@H](Cc2c[nH]c3ccccc23)NC(=O)[C@H](CCCNC(=N)N)NC(=O)[C@@H](Cc2ccc(Br)cc2)NC(=O)[C@H](CCCNC(=N)N)NC(=O)[C@@H](C)NC1=O
B9: CTX-1234 (peptide)
peptide: Ac-[Nle]CH[dPhe(4-I)]R[dW]C-NH2
modifications: disulfide 2-7
SMILES: CCCC[C@H](NC(C)=O)C(=O)N[C@H]1CSSC[C@@H](C(N)=O)NC(=O)[C@@H](Cc2c[nH]c3ccccc23)NC(=O)[C@H](CCCNC(=N)N)NC(=O)[C@@H](Cc2ccc(I)cc2)NC(=O)[C@H](Cc2c[nH]cn2)NC1=O

Positions of bridges follow the written chain, without caps; N, C: chain ends. Non-standard residues stand in square brackets, D forms with d. dPhe(4-Br) = N[C@H](Cc1ccc(Br)cc1)C(=O)O; dPhe(4-I) = N[C@H](Cc1ccc(I)cc1)C(=O)O; d(αMeF) = C[C@@](N)(Cc1ccccc1)C(=O)O; d(hPhe) = N[C@H](CCc1ccccc1)C(=O)O; NMeR = CN[C@@H](CCCNC(=N)N)C(=O)O; Cit = NC(=O)NCCC[C@H](N)C(=O)O; NMeA = CN[C@@H](C)C(=O)O; Nle = CCCC[C@H](N)C(=O)O; Aib = CC(C)(N)C(=O)O

T2 sequence (P32245 whole entry): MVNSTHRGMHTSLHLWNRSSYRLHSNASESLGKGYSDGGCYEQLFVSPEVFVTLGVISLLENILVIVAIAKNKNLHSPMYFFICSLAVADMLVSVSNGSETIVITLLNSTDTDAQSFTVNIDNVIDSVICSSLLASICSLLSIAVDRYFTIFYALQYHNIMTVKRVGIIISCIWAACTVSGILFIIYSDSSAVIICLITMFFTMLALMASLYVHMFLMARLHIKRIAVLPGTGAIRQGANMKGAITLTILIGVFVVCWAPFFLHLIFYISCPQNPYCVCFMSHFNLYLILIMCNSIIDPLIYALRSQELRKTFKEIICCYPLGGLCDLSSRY
T1 sequence (P41968 whole entry): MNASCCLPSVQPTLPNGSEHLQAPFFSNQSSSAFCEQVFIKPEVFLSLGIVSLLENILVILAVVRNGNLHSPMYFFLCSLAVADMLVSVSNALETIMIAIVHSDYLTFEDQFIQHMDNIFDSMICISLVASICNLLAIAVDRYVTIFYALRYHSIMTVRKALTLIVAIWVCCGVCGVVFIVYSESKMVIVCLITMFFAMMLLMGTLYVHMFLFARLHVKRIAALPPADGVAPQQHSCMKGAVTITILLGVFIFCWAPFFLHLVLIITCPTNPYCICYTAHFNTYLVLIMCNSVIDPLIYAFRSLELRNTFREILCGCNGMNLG

One experiment addresses T1, human MC3R (human, UniProt P41968 1-323). Briefly: cell-based or functional assay.
As for Ac-RC[dA]R[dF][Cit][dW]C-NH2 (disulfide 2-8) [CTX-1281], the “% max activation” value is 44% and the “cAMP EC50” value was found to be 28 nM.

On to B1, for which the “% max activation” value was found to be 45% and the “cAMP EC50” value worked out at 1040 nM.

For the molecule Ac-RCA[Cit][dF]RWC-NH2 (disulfide 2-8) [CTX-1287], the “% max activation” value came to 43% and the “cAMP EC50” value was found to be 50 nM.

As to B2, the “% max activation” value was found to be 86% and the “cAMP EC50” value turned out to be 418 nM.

Consider Ac-RC[Aib]R[dF][Cit]WC-NH2 (disulfide 2-8) [CTX-1270], for which the “% max activation” value was 14% and the “cAMP EC50” value was 52 nM.

For Ac-RC[dA][Cit][dF]R[dW]C-NH2 (disulfide 2-8) [CTX-1286], the “% max activation” value worked out at 24% and the “cAMP EC50” value stood at 568 nM.

Consider B3, for which the “% max activation” value came to 39% and the “cAMP EC50” value was 121 nM.

A further experiment concerns the target T2, human MC4R receptor (human, UniProt P32245 1-332). The experiment in a line: cell-based or functional assay.
Take Ac-RC[dA]R[dF][Cit][dW]C-NH2 (disulfide 2-8) [CTX-1281]: the “% max activation” value amounted to 92% and the “cAMP EC50” value was determined as 97 nM.

Take B1: the “% max activation” value came out at 91% and the “cAMP EC50” value worked out at 128 nM.

With Ac-RCA[Cit][dF]RWC-NH2 (disulfide 2-8) [CTX-1287], the “% max activation” value came to 94% and the “cAMP EC50” value came to 0.77 nM.

In the case of B2, the “% max activation” value is 105% and the “cAMP EC50” value came to 36 nM.

Turning to Ac-RC[Aib]R[dF][Cit]WC-NH2 (disulfide 2-8) [CTX-1270], the “% max activation” value was found to be 98% and the “cAMP EC50” value came to 27 nM.

With Ac-RC[dA][Cit][dF]R[dW]C-NH2 (disulfide 2-8) [CTX-1286], the “% max activation” value was determined as 91% and the “cAMP EC50” value was 262 nM.

For B3, the “% max activation” value worked out at 92% and the “cAMP EC50” value stood at 13 nM.

Another experiment concerns the target T1, human MC3R. The experiment in a line: cell-based or functional assay. The source holds these as a separate data set.
Regarding B4, the “cAMP EC50” value is 6 nM.

In the case of B5, the “cAMP EC50” value was found to be 3.9 nM.

For the molecule Ac-RC[dA]R[dPhe(4-Br)]R[dW]C-NH2 (disulfide 2-8) [CTX-1214], the “% max activation” value worked out at 15% and the “cAMP EC50” value worked out at 4.1 nM.

As to B6, the “cAMP EC50” value turned out to be 74 nM.

B7: the “% max activation” value was found to be 16% and the “cAMP EC50” value was 3.5 nM.

B8: the “% max activation” value amounted to 11% and the “cAMP EC50” value came to 3.5 nM.

On to B9, for which the “% max activation” value is 18% and the “cAMP EC50” value was 3.4 nM.

A further experiment concerns the target T2, human MC4R receptor. Briefly: cell-based or functional assay. This is another data set of the same source.
Consider B4, for which the “cAMP EC50” value was found to be 2.4 nM.

B5: the “cAMP EC50” value was found to be 1.4 nM.

Turning to Ac-RC[dA]R[dPhe(4-Br)]R[dW]C-NH2 (disulfide 2-8) [CTX-1214], the “% max activation” value was determined as 74% and the “cAMP EC50” value was determined as 2.6 nM.

Regarding B6, the “cAMP EC50” value worked out at 249 nM.

For B7, the “% max activation” value turned out to be 31% and the “cAMP EC50” value came to 18 nM.

A further experiment deals with T2, human MC4R receptor. The experiment in a line: cell-based or functional assay. The source holds these as a separate data set.
Turning to Ac-RC[dA]R[dF][Cit][dW]C-NH2 (disulfide 2-8) [CTX-1281], the “MC4R selectivity vs MC1R” value came to 0.44 and the “MC4R selectivity vs MC3R” value was determined as 0.29.

As to B1, the “MC4R selectivity vs MC1R” value amounted to 0.15 and the “MC4R selectivity vs MC3R” value worked out at 8.11.

For the molecule Ac-RCA[Cit][dF]RWC-NH2 (disulfide 2-8) [CTX-1287], the “MC4R selectivity vs MC1R” value is 281 and the “MC4R selectivity vs MC3R” value was found to be 66.

Consider B2, for which the “MC4R selectivity vs MC1R” value came to 1.13 and the “MC4R selectivity vs MC3R” value worked out at 12.

Turning to Ac-RC[Aib]R[dF][Cit]WC-NH2 (disulfide 2-8) [CTX-1270], the “MC4R selectivity vs MC1R” value was found to be 2.49 and the “MC4R selectivity vs MC3R” value was 1.88.

Take Ac-RC[dA][Cit][dF]R[dW]C-NH2 (disulfide 2-8) [CTX-1286]: the “MC4R selectivity vs MC1R” value stood at 3.4 and the “MC4R selectivity vs MC3R” value was determined as 2.16.

In the case of B3, the “MC4R selectivity vs MC1R” value came out at 2.56 and the “MC4R selectivity vs MC3R” value turned out to be 9.31.
